Measurements reported in article PMC4013067.

Conditions: N-glycosylation at N138

| Substance | localisation_or_trafficking | expression_or_secretion | other |
| --- | --- | --- | --- |
| nicotinic acetylcholine receptor β4 subunit: M467V+S140G, co-expressed with α3 | decreases, relative surface ELISA 0.17±0.02 vs 1.00 (WT), P<0.001 | – | – |
| nicotinic acetylcholine receptor β4 subunit: S140G (sequon disruption), co-expressed with α3 | abolishes, relative surface ELISA −0.04±0.05 vs 1.00 (WT), P<0.001 | no change | – |
| nicotinic acetylcholine receptor β4 subunit: S140G (sequon disruption), co-expressed with α3: nicotine EC50 | – | – | changes, nicotine EC50 22±4 µM (WT) to 48±4 µM, P<0.05; ACh EC50 not significantly changed |
| nicotinic acetylcholine receptor β4 subunit: S140G (sequon disruption), co-expressed with α4 | abolishes, relative surface ELISA −0.13±0.22 vs 1.00 (WT), P<0.001 | – | – |
| nicotinic acetylcholine receptor β4 subunit: S140G (sequon disruption), co-expressed with α4: ACh and nicotine EC50 | – | – | changes, ACh EC50 9.36±1.35 to 16.7±2.1 µM (P<0.01); nicotine EC50 1.48±0.17 to 2.75±0.27 µM (P<0.01); sag to ACh 0.90 to 0.76 (P |
